This is an account of results in the Immune Epitope Database (IEDB).

A word on the IC50: it is the concentration that gives 50% inhibition. Usually Kd stands for a measure of binding affinity in units of concentration.

Test [1] has as its target HLA-A*03:01. The test is described as follows: IEDB peptide-MHC binding, purified MHC/competitive/fluorescence; ≥ and ≤ were set here for values at or beyond the usual limits of such assays.
In another test the target is HLA-A*24:02. Described as above.
Test [2] concerns the target HLA-A*11:01. Described as above.
The next test concerns the target HLA-C*05:01. Kind of test: IEDB peptide-MHC binding, purified MHC/direct/fluorescence; filed as Kd, often an IC50 or EC50 that approximates it; ≥ and ≤ were set here for values at or beyond the usual limits of such assays.
Test [3] concerns the target HLA-A*11:01. Described as above. Conditions: source organism: Homo sapiens.
The target in the next test is HLA-B*57:01. The test is described as follows: IEDB peptide-MHC binding, purified MHC/competitive/fluorescence; filed as Kd, often an IC50 or EC50 that approximates it; ≥ and ≤ were set here for values at or beyond the usual limits of such assays.
The target in the next test is HLA-B*27:03. The description is as above.
For test [4], the target named is HLA-A*03:01. The test is described as above.
The target of another test is HLA-A*26:01. The test is described as above.
For the next test, the target named is HLA-B*15:01. The description is as above.
The target in a further test is HLA-B*46:01. Described as above.
The target of another test is HLA-B*18:01. Described as above.
Test [5] addresses HLA-A*02:01. The description is as above. Conditions: source organism: Staphylococcus aureus subsp. aureus N315.
The next test deals with HLA-B*39:01. The description is as above.
For a further test, the target named is HLA-B*15:17. The description is as above. The conditions noted are these: source organism: Homo sapiens.
The target in a further test is HLA-A*69:01. The description is as above. The conditions noted are these: source organism: Homo sapiens.
The target in the next test is HLA-B*51:01. Described as above. The conditions noted are these: source organism: Homo sapiens.
The target of the next test is HLA-B*83:01. The description is as above. Conditions: source organism: human gammaherpesvirus 4.
The target of another test is HLA-B*15:42. The test is described as above. Conditions: source organism: human gammaherpesvirus 4.
For another test, the target named is HLA-B*45:06. Described as above. Conditions: source organism: human gammaherpesvirus 4.
The target of test [6] is HLA-A*02:01. Kind of test: IEDB peptide-MHC binding, purified MHC/competitive/fluorescence; ≥ and ≤ were set here for values at or beyond the usual limits of such assays. The conditions noted are these: source organism: Zaire ebolavirus.
Setting [7] is: source organism: Zaire ebolavirus.
[8] abbreviates: source organism: Staphylococcus aureus subsp. aureus N315.
[9] abbreviates: source organism: Vaccinia virus Copenhagen.
Where [10] appears, read: source organism: Sudan ebolavirus.

Regarding SGYYSTTIR, the IC50 with HLA-A*03:01 [1] (setting [7]) was 1.67 µM; with HLA-A*24:02 (setting [7]) it was at least 346 µM; with HLA-A*11:01 [2] (setting [7]), 0.903 µM.

As to TFDVAPSRL, the results for the Kd with HLA-C*05:01 (source organism: Mus musculus) and with HLA-A*11:01 [3] were at least 20 µM and at least 32.6 µM, respectively.

Consider VILNYIPVL, for which the Kd with HLA-B*57:01 (setting [8]), in the test with HLA-B*27:03 (setting [8]), with HLA-A*03:01 [4] (setting [8]), in the test with HLA-A*26:01 (setting [8]), with HLA-B*15:01 (setting [8]) and with HLA-B*46:01 (setting [8]) was at least 20 µM each time. Further, the Kd with HLA-B*18:01 (setting [8]) is at least 20 µM; with HLA-A*02:01 [5] it was 0.0006 µM; with HLA-B*39:01 (setting [8]), at least 20 µM.

For the sequence LMQCWQLLA, the Kd in the test with HLA-B*15:17, in the test with HLA-B*57:01 (source organism: Homo sapiens), in the test with HLA-B*27:03 (source organism: Homo sapiens), in the test with HLA-A*26:01 (source organism: Homo sapiens), with HLA-A*69:01 and with HLA-B*15:01 (source organism: Homo sapiens) was at least 20 µM each time. Also, the Kd in the test with HLA-B*46:01 (source organism: Homo sapiens), in the test with HLA-B*18:01 (source organism: Homo sapiens), with HLA-B*51:01 and in the test with HLA-B*39:01 (source organism: Homo sapiens) was at least 20 µM throughout.

With LSSSVPSQK, in the test with HLA-A*03:01 [4] (source organism: Homo sapiens), the Kd was 0.455 µM.

For KSMRDQRKG, the values for the IC50 with HLA-A*03:01 [1] (source organism: Variola virus) and in the test with HLA-A*11:01 [2] (source organism: Variola virus) were at least 119 µM and 47.3 µM, respectively.

With FYRSGTETK, the concentration for half-maximal inhibition (IC50) in the test with HLA-A*03:01 [1] (setting [9]) was 64.2 µM; in the test with HLA-A*24:02 (setting [9]), at least 99.2 µM; with HLA-A*11:01 [2] (setting [9]), 44.1 µM.

Turning to GIYTEGLMH, the half-inhibitory concentration (IC50) with HLA-A*03:01 [1] (setting [10]) turned out to be 15.4 µM; in the test with HLA-A*11:01 [2] (setting [10]), 3.55 µM.

On to FLDKGTYTL, for which the Kd in the test with HLA-C*05:01 (source organism: human gammaherpesvirus 4) is at most 0.001 µM; with HLA-B*83:01 it was at least 5 µM; with HLA-B*15:42, at least 5 µM; with HLA-B*45:06 it was at least 5 µM.

The sequence LLLKERGLH registered a Kd in the test with HLA-A*03:01 [4] (source organism: Vibrio parahaemolyticus AQ3810) of at least 20 µM.

With KIDNNTFVR, the IC50 was determined as 31.9 µM in the test with HLA-A*03:01 [1] (setting [10]) and 2.74 µM in the test with HLA-A*11:01 [2] (setting [10]).

As to LITGGRRTR, the IC50 with HLA-A*03:01 [1] (setting [7]) was at least 112 µM; with HLA-A*11:01 [2] (setting [7]) it was at least 93.3 µM; in the test with HLA-A*02:01 [6] it was at least 111 µM.
